Values quoted from earlier work, collected in article PMC3113340.

Biological target: IL-1ra (Homo sapiens) (UniProt P18510)
Chain of UniProt P18510 (P18510 26-177): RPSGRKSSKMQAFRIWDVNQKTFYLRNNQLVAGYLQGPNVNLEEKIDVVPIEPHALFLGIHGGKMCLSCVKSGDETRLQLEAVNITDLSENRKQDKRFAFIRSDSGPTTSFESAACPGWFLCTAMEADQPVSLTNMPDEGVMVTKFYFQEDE

- Kd: 0.014 nM
Substance: soluble IL-1RI ECD (from UniProt P14778)
